Measurements published in PMC7898697.

Key:
Test in all cases: BLI
[1] = target: natively linked ^Arg42Ub^ADPr, biotinylated (UniProt P0CG48)
[2] = target: unmodified ubiquitin, biotinylated (biotin-Ub) (UniProt P0CG48)
[3] = target: triazole-linked ^triazole42Ub^me-ADPr (5), biotinylated (UniProt P0CG48)
[4] = target: triazole-linked ^triazole42Ub^ADPr (4), biotinylated (UniProt P0CG48)
[5] = target: triazole-linked ^triazole42Ub^Pr (6), biotinylated (UniProt P0CG48)
[6] = target: triazole-linked ^triazole72Ub^ADPr, biotinylated (UniProt P0CG48)

Row | Substance | Kd [1] | Kd [2] | Kd [3] | Kd [4] | fold reduction of affinity against 4 and 5 [5] | Kd [6] | fold reduction of affinity against 4 and 5 [2]
1 | glutathione S-transferase (GST)-tagged DupA-H67A (from UniProt Q5ZTK7 1-301) (enzyme) | 5.7 nM | 54.5 nM | 10.6 nM | 11.2 nM | – | – | –
2 | DupA-H67A lacking the GST tag (from UniProt Q5ZTK7 1-301) (enzyme) | – | – | 1200 nM | 2200 nM | > 15 fold | 9300 nM | > 15 fold
